From paper PMC4323994 (Immunology and cell biology, 2014)
Where no end group is shown, it is not given here.

Tests used:
[1] = molecular target: HLA-DR molecule, DRB1*1101 (human); experiment: ELISA
[2] = molecular target: HLA-DR molecule, DRB1*0401 (human); experiment: ELISA

IC50 [1]	IC50 [2]	Binder
< 2000 nM		QATFMVFQALAQYQKDAP (also: amino and carboxyl ends blocked) [C3d_(269–286)]
< 2000 nM	< 2000 nM	GKQLYNVEATSYALLALLQLKDFD (also: amino and carboxyl ends blocked) [C3d_(223–246)]
< 2000 nM		VPPVVRWLNEQRYYGGGY (also: amino and carboxyl ends blocked) [C3d_(248–265)]
